# In EP4772535A1 (Chia Tai Tianqing Pharmaceutical Group Co., Ltd., dated 2026):
# Where a chain is given by its changes, count along the chain named.
# B1: ch135A2B10 (antibody, human IgG1, kappa, V domains shown)
# VH: DVKLVESGGGLVTPEGSLKLSCAASGFAFSTYGMAWVRQTPEKRLEWVASIHKGGFSTYYPDNVKGRFTISRDNDKNTLYLQMSSLKSEDTAMYYCIRHDWDGAMDYWGQGTSVTVSS
# VL: DIVLTQSPSSMYASLGERVTITCKASQDINSYLNWFQQKPGKSPKTLIYRANRLVDGVPSRFSGSGSGQDYSLTISSLEYEDLGIYYCLQFDEFPYTFGGGTKLEIKR
# notes: also called chimeric antibody of m135A2B10
# B2: ch137G11D10 (antibody, human IgG1, kappa, V domains shown)
# VH: DVQLQESGPGLVKPSQSLSLTCTVTGYSITSDYAWNWIRQFPGNKLEWMGYITYSASTSYNPSLKSRISITRDTSKNQFFLQLNSVTTEDTATYYCARGAGTYYFDYWGQGSTLTVSS
# VL: DIVLTQSPASLSVATGEKVTIRCITSTDIDEDMNWYQQKPGEPPKLLISEDNSLRPGVPSRFSSSGYGTDFVLTIENTLSEDVADYYCLQTNNLPLTFGAGTKLEIKR
# notes: also called chimeric antibody of m137G11D10
# B3: ch29H5D8 (antibody, human IgG1, kappa, V domains shown)
# VH: EVQLQQSGAELARPGASVKLSCKASGYTFTNYGISWVKQRTGQGLEWIGEIYPRSVNTYYSAKFKGKATLTADKSSSTAYMELRSLTSEDSAVYFCARHYYGSSLDYWGQGTTLTVSS
# VL: DIVLTQSPASLSVATGEKVTIRCITSSDIEDDMNWYQQKPGEPPKLLISEGNSLRPGVPSRFSSSGYGTDFVFTIENTLSEDVADYYCLQSDNIFTFGSGTKLEIKR
# notes: also called chimeric antibody of m29H5D8
# B4: ch3G9B1 (antibody, human IgG1, kappa, V domains shown)
# VH: QVQLQQSGTELARPGASVKLSCKASGYTFTSYGITWVKQRTGQGLEWIGEIYPRSGNTYFNEKFKGKATLTADKSSSTAYMELRSLTSEDSAVYFCARDRTGTGVDDYWGQGTTLTVSS
# VL: DIVLTQSPASLSMAIGEKVTIRCITNTDIDDDMSWYQQKPGEPPNLLISEGNTLRPGVPSRFSSSGYGRDFVFTIENMLSEDVADYYCLQSNNLPYTFGGGTKLEIKR
# notes: also called chimeric antibody of m3G9B1
# B5: hz29H5D8-3.1 (antibody, human IgG1, kappa, V domains shown)
# VH: QVQLVQSGAEVKKPGSSVKVSCKASGYTFTNYGISWVRQAPGQGLEWMGEIYPRSVNTYYAQKFQGRVTITADKSTSTAYMELSSLRSEDTAVYYCARHYYGSSLDYWGQGTLVTVSS
# VL: DIQMTQSPSSLSASVGDRVTITCITSSDIEDDMNWYQQKPGKAPKLLISEGNSLRPGVPSRFSSSGYGTDFTFTISSLQPEDIATYYCLQSDNIFTFGQGTKVEIKR
# notes: Humanized, human IgG1/kappa
# B6: hz29H5D8-2.1 (antibody, human IgG1, kappa, V domains shown)
# VH: B5 VH
# VL: B5 VL with S49Y
# notes: Humanized, human IgG1/kappa
# B7: hz135A2B10-1.2 (antibody, human IgG1, kappa, V domains shown)
# VH: QVQLVESGGGLVQPGGSLRLSCAASGFAFSTYGMAWVRQAPGKGLEWVASIHKGGFSTYYPDNVKGRFTISRDNDKNSLYLQMNSLRAEDTAVYYCIRHDWDGAMDYWGQGTLVTVSS
# VL: DIQMTQSPSSLSASVGDRVTITCKASQDINSYLNWYQQKPGKAPKTLIYRANRLVDGVPSRFSGSGSGQDYTLTISSLQPEDFATYYCLQFDEFPYTFGQGTKVEIKR
# notes: Humanized, human IgG1/kappa
# B8: hz135A2B10-1.3 (antibody, human IgG1, kappa, V domains shown)
# VH: B7 VH with G44R
# VL: B7 VL
# notes: Humanized, human IgG1/kappa
# B9: hz137G11D10-2.2 (antibody, human IgG1, kappa, V domains shown)
# VH: QVQLQESGPGLVKPSQTLSLTCTVSGYSITSDYAWNWIRQHPGKGLEWIGYITYSASTSYNPSLKSRVTISRDTSKNQFFLKLSSVTAADTAVYYCARGAGTYYFDYWGQGTLVTVSS
# VL: DIQMTQSPSSLSASVGDRVTITCITSTDIDEDMNWYQQKPGKAPKLLIYEDNSLRPGVPSRFSGSGYGTDFTLTISSLQPEDFATYYCLQTNNLPLTFGQGTKVEIKR
# notes: Humanized, human IgG1/kappa
# B10: hz137G11D10-1.1 (antibody, human IgG1, kappa, V domains shown)
# VH: B9 VH with F80S
# VL: ETTLTQSPAFMSATPGDKVNISCITSTDIDEDMNWYQQKPGEAAKLIISEDNSLRPGIPPRFSSSGYGTDFTLTINNIESEDAAYYFCLQTNNLPLTFGQGTKVEIKR
# notes: Humanized, human IgG1/kappa
# B11: hz137G11D10-3.2 (antibody, human IgG1, kappa, V domains shown)
# VH: B9 VH
# VL: B9 VL with Y49S, G64S
# notes: Humanized, human IgG1/kappa
# B12: hz137G11D10-3.1 (antibody, human IgG1, kappa, V domains shown)
# VH: B9 VH with F80S
# VL: B9 VL with Y49S, G64S
# notes: Humanized, human IgG1/kappa
# B13: hz137G11D10-1.2 (antibody, human IgG1, kappa, V domains shown)
# VH: B9 VH
# VL: B10 VL
# notes: Humanized, human IgG1/kappa
# Target: T1, ROR1 naturally expressed on human tumor cell lines (A549, Jeko-1, SW620, PA-1) (human, UniProt Q01973 30-937)
# T1 construct: whole, on cells; also called cells expressing ROR1
# T1 sequence (Q01973 30-937): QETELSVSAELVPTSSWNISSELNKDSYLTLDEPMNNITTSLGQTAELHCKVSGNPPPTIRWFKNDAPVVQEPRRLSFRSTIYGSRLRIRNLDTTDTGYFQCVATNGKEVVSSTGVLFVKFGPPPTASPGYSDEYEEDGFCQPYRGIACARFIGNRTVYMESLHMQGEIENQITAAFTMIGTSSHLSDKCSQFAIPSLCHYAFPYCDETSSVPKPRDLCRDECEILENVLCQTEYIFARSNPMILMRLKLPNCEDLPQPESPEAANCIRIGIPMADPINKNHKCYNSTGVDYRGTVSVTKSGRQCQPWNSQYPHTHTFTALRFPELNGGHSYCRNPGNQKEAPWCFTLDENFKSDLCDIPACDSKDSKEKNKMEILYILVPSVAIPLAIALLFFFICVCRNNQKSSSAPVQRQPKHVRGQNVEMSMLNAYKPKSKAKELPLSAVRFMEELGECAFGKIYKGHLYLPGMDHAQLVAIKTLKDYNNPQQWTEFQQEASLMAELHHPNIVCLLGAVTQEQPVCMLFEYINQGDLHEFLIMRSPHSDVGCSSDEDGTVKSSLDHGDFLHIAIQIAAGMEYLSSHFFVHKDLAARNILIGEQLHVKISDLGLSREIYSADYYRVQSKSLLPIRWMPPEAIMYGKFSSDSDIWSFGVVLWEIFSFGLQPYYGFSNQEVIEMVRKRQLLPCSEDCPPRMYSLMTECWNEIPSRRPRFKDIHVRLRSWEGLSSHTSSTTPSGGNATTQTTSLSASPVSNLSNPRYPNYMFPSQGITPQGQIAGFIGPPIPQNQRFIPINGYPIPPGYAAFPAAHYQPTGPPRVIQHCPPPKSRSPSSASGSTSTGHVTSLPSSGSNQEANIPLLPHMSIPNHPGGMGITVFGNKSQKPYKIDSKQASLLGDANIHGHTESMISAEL
# Assay: FACS on A549 cells naturally expressing ROR1
EC50,Top (MFI),Binder
0.094 nM,87800 MFI,B1
0.02 nM,82800 MFI,B2
0.016 nM,78500 MFI,B3
0.03 nM,65200 MFI,B4

# Target: T1, ROR1 naturally expressed on human tumor …
# Assay: FACS on PA-1 cells naturally expressing ROR1
EC50,Top (MFI),Binder
0.092 nM,247000 MFI,B5
0.126 nM,239000 MFI,B6

# Target: T1, ROR1 naturally expressed on human tumor …
# Assay: FACS on PA-1 cells naturally expressing ROR1
# Remark: another data set of the same source
EC50,Top (MFI),Binder
0.217 nM,238000 MFI,B7
0.192 nM,249000 MFI,B8

# Target: T1, ROR1 naturally expressed on human tumor …
# Assay: FACS on PA-1 cells naturally expressing ROR1
# Remark: another data set of the same source
EC50,Top (MFI),Binder
0.061 nM,233000 MFI,B9
0.075 nM,244000 MFI,B10
0.054 nM,225000 MFI,B11
0.063 nM,231000 MFI,B12
0.092 nM,248000 MFI,B13

# Target: T1, ROR1 naturally expressed on human tumor …
# Assay: FACS on SW620 cells naturally expressing ROR1
EC50,Top (MFI),Binder
0.06 nM,29800 MFI,B1
0.01 nM,27300 MFI,B2
0.01 nM,27000 MFI,B3
0.048 nM,20400 MFI,B4

# Target: T1, ROR1 naturally expressed on human tumor …
# Assay: FACS on SW620 cells naturally expressing ROR1
# Remark: another data set of the same source
EC50,Top (MFI),Binder
0.011 nM,30700 MFI,B5
0.015 nM,28600 MFI,B6

# Target: T1, ROR1 naturally expressed on human tumor …
# Assay: FACS on SW620 cells naturally expressing ROR1
# Remark: another data set of the same source
EC50,Top (MFI),Binder
0.034 nM,30400 MFI,B7
0.047 nM,29900 MFI,B8

# Target: T1, ROR1 naturally expressed on human tumor …
# Assay: FACS on SW620 cells naturally expressing ROR1
# Remark: another data set of the same source
EC50,Top (MFI),Binder
0.009 nM,28500 MFI,B9
0.013 nM,32600 MFI,B10
0.011 nM,30700 MFI,B11
0.009 nM,30900 MFI,B12
0.013 nM,31500 MFI,B13

# Target: T1, ROR1 naturally expressed on human tumor …
# Assay: FACS on Jeko-1 cells naturally expressing ROR1
EC50,Top (MFI),Binder
0.037 nM,71900 MFI,B1
0.012 nM,71100 MFI,B2
0.011 nM,70400 MFI,B3
0.01 nM,61100 MFI,B4

# Target: T1, ROR1 naturally expressed on human tumor …
# Assay: FACS on Jeko-1 cells naturally expressing ROR1
# Remark: another data set of the same source
EC50,Top (MFI),Binder
0.014 nM,87700 MFI,B5
0.015 nM,85000 MFI,B6

# Target: T1, ROR1 naturally expressed on human tumor …
# Assay: FACS on Jeko-1 cells naturally expressing ROR1
# Remark: another data set of the same source
EC50,Top (MFI),Binder
0.022 nM,89700 MFI,B7
0.024 nM,86700 MFI,B8

# Target: T1, ROR1 naturally expressed on human tumor …
# Assay: FACS on Jeko-1 cells naturally expressing ROR1
# Remark: another data set of the same source
EC50,Top (MFI),Binder
0.012 nM,86100 MFI,B9
0.015 nM,93200 MFI,B10
0.012 nM,86800 MFI,B11
0.012 nM,87000 MFI,B12
0.016 nM,92500 MFI,B13

# Target: T2, human/cynomolgus monkey ROR1 protein (Acro Biosystems, Cat. No.: RO1-H522y) (human/cynomolgus monkey, UniProt Q01973 30-403)
# T2 construct: Bought SPR analyte
# T2 sequence (Q01973 30-403 limits assumed): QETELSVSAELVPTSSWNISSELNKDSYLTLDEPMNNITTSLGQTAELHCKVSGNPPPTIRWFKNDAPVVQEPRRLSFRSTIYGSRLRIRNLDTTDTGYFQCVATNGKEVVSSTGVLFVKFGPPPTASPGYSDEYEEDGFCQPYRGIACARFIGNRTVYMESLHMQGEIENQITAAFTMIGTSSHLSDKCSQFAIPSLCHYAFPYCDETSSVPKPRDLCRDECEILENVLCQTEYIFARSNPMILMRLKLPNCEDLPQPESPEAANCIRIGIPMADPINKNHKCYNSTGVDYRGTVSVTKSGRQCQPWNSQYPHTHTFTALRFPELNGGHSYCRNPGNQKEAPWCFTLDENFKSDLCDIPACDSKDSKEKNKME
# Assay: SPR (Biacore), antibody captured on anti-hIgG CM5 chip, ROR1 protein as analyte, 1:1 model
Kd,koff,kon,Binder
0.586 nM,0.000551 s⁻¹,941000 M⁻¹ s⁻¹,B1
0.61 nM,0.00315 s⁻¹,5.16e+06 M⁻¹ s⁻¹,B2
0.669 nM,0.00248 s⁻¹,3.7e+06 M⁻¹ s⁻¹,B3
27.1 nM,0.0639 s⁻¹,2.36e+06 M⁻¹ s⁻¹,B4

# Target: T2, human/cynomolgus monkey ROR1 protein …
# Assay: SPR (Biacore), antibody captured on anti-hIgG CM5 chip, ROR1 protein as analyte, method of Example 5
Kd,koff,kon,Binder
0.343 nM,0.000811 s⁻¹,2.37e+06 M⁻¹ s⁻¹,B9
0.145 nM,0.000539 s⁻¹,3.72e+06 M⁻¹ s⁻¹,B10
0.16 nM,0.000469 s⁻¹,2.92e+06 M⁻¹ s⁻¹,B11
0.172 nM,0.000492 s⁻¹,2.86e+06 M⁻¹ s⁻¹,B12
0.105 nM,0.000414 s⁻¹,3.94e+06 M⁻¹ s⁻¹,B13
0.569 nM,0.000596 s⁻¹,1.05e+06 M⁻¹ s⁻¹,B7
0.575 nM,0.000567 s⁻¹,985000 M⁻¹ s⁻¹,B8
0.112 nM,0.000218 s⁻¹,1.95e+06 M⁻¹ s⁻¹,B5
0.589 nM,0.000925 s⁻¹,1.57e+06 M⁻¹ s⁻¹,B6
